These results are taken from US20170218064A1 (Stanford University, published 2017).

For the assay, the target named is T1, human neuromedin U (NMU), bioactive processed 25 amino acid form (human, C-terminal amidation (-NH2)).
T1 construct: In the serum ELISAs the target is endogenous circulating human NMU; also called human NMU; NMU-25
T1 peptide: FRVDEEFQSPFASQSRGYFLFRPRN
Put plainly: not described.

B1: anti-NMU monoclonal antibody 2A16 (antibody, V domains shown)
VH: QIQLVQSGPELKKPGETVKISCKASGYTFTKHGMNWMKQAPGKGLKWMGWINTNTGEPTYSEEFKGRFAFSLETSASTAYLQINNLKNEDTATYFCARTGRYGVDYWGKGTSVTVSS
VL: DIQMTQSPSSLSASLGERVSLTCRASQDIGSNLNWIQQEPDGTIKRLIYATSTLDSGVPKRFSGSRSGSDYFLTISSLESEDFVDYYCLQFDSSPLTFGAGTKLELK
notes: Monoclonal antibody from a mouse hybridoma
B1: the binding result is “binds”.

B2: anti-NMU monoclonal antibody C578 (antibody, V domains shown)
VH: EVQLQQSGAELVRSGASVKLSCAASGFNIKDYYIHWVKQRPEQGLEWIGWIDPENGDNECAPKFQGKATMTADTSSNTAYLQLTSLTSEDTAVYYCNAGKGDYWGQGTTLTVSS
VL: NIVMTQSPSSLAMSIGQKVTMSCRSSQSLLNSSNQKNYLAWYQQKPGQSPKLLVYFASTRESGVPARFIGSGSGTDFTLTISSVQAEDLADYFCQQHYSTPFTFGSGTKLEIK
notes: as for B1
As for B2, the binding result is given as “binds”.
